Measured values: patent US20080311034A1 (published 2008)

Legend:
[1] = target: T1, recombinant human His-tagged FcγRIIIa (extracellular domain made at Centocor) (human, UniProt P08637 17-208); experiment: ELISA
T1 construct: extracellular domain; also called CD16a; recombinant, soluble, human FcγRIIIa
Protocol: FcγRI (CD64) ELISA —50 μl of a 1 μg/ml solution of recombinant human His-tagged FcγRI (extracellular domain, R&D Systems #1257-FC-050) in ELISA buffer (PBS, pH 7.4, 4 mg/ml BSA, 0.01% Tween-20) was added to each well of HisGrab 96 well plates (Pierce #15142) (Powers G., Notebook 9006, pp. 166-168, 180-181). The plate was incubated with shaking for 3 hours. The plates were washed 3× with 300 μl of wash buffer (PBS, 0.01% Tween-20) on a plate washer. Serial dilutions of the CNTO860 antibody Fc-variant samples were made in ELISA buffer and 50 μl per well of each titration were added in duplicate to the FcγRI-coated plates. The plates were incubated with shaking for 1 hour. The plates were washed 3× with 300 μl of wash buffer on a plate washer. 50 μl of a 1:10,000 dilution of HRP-labeled goat F(ab′)₂ anti-human IgG F(ab′)₂ (Jackson Immunoresearch # 109-036-097) in ELISA buffer was added to each well. The plates were incubated with shaking for 30 minutes. The plates were washed 3× with 300 μl of wash buffer on the plate washer. 50 μl per well TMB substrate (RDI #RDI-TMBSU-1L) was added to each well and developed for 5 minutes. The reaction was stopped by adding 100 μl 0.2 N sulfuric acid. The plates were read at OD450 on an Envision plate reader.
FcγRIIIa (CD16a) ELISA—A human FcγRIIIa binding assay was done in ELISA format similar to the assay for FcγRI above. 50 μl of a 2 μg/ml solution of recombinant human His-tagged FcγRIIIa (extracellular domain made at Centocor) in ELISA buffer (PBS, 4 mg/ml BSA, 0.01% Tween-20) was added to each well of HisGrab 96 well plates (Pierce #15142) (Powers G., Notebook 10378, 19-23). The plate was incubated for 3 hours at room temp. The plates were blocked with 200 μl of Starting Block (Pierce #15142) for 30 min, and then washed 3× with 300 μl of wash buffer (PBS, 0.01% Tween-20) on a plate washer. Serial dilutions of the CNTO 860 test samples were made in Starting Block buffer and 50 μl per well of each titration were added in duplicate to the FcγRIIIa-coated plates. The plates were incubated for 1 hour. The plates were washed 3× with 300 μl of wash buffer on a plate washer. 50 μl of a 1:10,000 dilution of HRP-labeled goat F(ab′)2 anti-human IgG F(ab′)2 (Jackson Immunoresearch # 109-036-097) in Starting Block buffer was added to each well. The plates were incubated for 30 minutes.

[2] = target: T2, recombinant polyhistidine tagged mouse FcγRIII (R&D Systems) (mouse, UniProt P08508 31-215); experiment: ELISA, His-tagged mouse receptor captured on copper-coated plate
T2 construct: Bought
T2 sequence (looked up): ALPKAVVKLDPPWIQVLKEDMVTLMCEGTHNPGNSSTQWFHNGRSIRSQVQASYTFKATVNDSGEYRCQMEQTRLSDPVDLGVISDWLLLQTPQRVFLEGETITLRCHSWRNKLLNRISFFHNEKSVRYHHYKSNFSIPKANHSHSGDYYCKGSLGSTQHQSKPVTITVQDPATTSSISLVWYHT
Protocol: (§1) Commercially-available recombinant polyhistidine tagged mouse FcγRI, FcγRII, FcγRIII, and FcγRIV (R&D Systems) were diluted to 1 μg/ml in PBS and 100 μl/well was captured onto copper-coated plates (Pierce) overnight at 4° C. Plates were washed three times with wash buffer (0.15M NaCl, 0.02% Tween 20). Non-specific binding was blocked using 200 μl/well SuperBlock (Pierce) for 15 minutes at room temperature. Plates were washed three times as above. […] Plates were washed three times as above to remove unbound mAb. CNTO 860 variants that bound to plated receptors were detected using 100 μl/well HRP-labeled goat F(ab′)₂ anti-human IgG F(ab′)₂ (Jackson ImmunoResearch) diluted 1:5,000 in PBS incubated at room temperature for 1 hour. Plates were washed five times using wash buffer as above, and developed using 100 μl/well TMB Stable Stop substrate (Fitzgerald Industries) stopped with 0.5M HCl. Absorbance was detected at 450 nm.
(§2) All binding assays were in an ELISA format, with recombinant soluble receptor captured on coated EIA plates.

[3] = target: T3, recombinant polyhistidine tagged mouse FcγRI (R&D Systems) (mouse, UniProt P26151 25-297); experiment: as above
T3 construct: Bought; also called murine FcγRI
T3 sequence (looked up): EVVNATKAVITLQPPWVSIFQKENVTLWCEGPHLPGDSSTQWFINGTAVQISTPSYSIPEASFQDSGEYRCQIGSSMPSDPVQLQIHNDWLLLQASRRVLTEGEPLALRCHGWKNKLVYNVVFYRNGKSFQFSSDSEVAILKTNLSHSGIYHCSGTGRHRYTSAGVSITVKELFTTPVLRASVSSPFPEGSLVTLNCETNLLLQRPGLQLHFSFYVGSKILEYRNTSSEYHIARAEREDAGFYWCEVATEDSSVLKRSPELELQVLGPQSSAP
Protocol: as §1, §2

[4] = target: T4, recombinant polyhistidine tagged mouse FcγRIV (R&D Systems) (mouse, UniProt A0A0B4J1G0 21-203); experiment: as above
T4 construct: Bought
T4 sequence: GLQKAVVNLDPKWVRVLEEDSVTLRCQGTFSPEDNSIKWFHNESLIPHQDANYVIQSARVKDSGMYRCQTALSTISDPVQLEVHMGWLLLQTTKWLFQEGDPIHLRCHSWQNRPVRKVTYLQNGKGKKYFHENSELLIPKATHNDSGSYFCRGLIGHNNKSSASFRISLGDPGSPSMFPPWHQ
Protocol: as §1, §2

[5] = target: T5, recombinant polyhistidine tagged mouse FcγRII (R&D Systems) (mouse, UniProt P08101 40-217, limits assumed); experiment: as above
T5 construct: Bought; also called FcRII
T5 sequence (looked up): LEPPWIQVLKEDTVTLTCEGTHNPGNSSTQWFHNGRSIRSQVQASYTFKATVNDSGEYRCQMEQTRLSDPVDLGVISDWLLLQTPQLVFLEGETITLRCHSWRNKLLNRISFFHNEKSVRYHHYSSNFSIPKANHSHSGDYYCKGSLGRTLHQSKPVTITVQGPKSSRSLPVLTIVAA
Protocol: as §1, §2

[6] = target: T6, FcγRIIIa on NK cells of human PBMC (human, UniProt P08637 17-254); experiment: cell-based or functional assay
T6 sequence (P08637 17-254): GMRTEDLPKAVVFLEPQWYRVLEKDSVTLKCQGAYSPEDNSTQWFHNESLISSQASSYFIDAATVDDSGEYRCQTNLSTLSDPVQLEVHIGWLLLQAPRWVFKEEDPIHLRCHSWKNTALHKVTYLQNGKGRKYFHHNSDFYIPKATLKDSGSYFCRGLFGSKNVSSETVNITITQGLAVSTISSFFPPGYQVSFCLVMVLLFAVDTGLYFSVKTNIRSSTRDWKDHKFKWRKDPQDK

[7] = target: T6, FcγRIIIa on NK cells of human PBMC; experiment: cell-based or functional assay; remark: listed apart in the source

T1 sequence (P08637 17-208): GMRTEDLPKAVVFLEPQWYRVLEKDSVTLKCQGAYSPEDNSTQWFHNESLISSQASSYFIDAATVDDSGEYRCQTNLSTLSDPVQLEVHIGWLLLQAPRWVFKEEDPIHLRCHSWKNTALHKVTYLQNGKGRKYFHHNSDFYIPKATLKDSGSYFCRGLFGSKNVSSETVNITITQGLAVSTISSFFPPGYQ

B1: CHO-CNTO 860 I332E (antibody)
heavy: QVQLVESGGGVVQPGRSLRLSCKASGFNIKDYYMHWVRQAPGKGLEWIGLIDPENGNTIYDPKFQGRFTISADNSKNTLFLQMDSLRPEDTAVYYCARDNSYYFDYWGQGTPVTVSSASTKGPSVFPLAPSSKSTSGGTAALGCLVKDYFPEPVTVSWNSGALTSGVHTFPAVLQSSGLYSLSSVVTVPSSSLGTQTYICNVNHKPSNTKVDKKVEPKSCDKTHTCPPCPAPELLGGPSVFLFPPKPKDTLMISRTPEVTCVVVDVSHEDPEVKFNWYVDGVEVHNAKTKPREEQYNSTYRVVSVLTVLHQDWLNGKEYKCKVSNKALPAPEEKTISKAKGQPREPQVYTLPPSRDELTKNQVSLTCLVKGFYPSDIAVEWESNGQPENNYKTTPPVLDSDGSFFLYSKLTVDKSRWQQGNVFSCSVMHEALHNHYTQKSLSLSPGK
light: DIQMTQSPSSLSASVGDRVTITCKASQDIRKYLNWYQQKPGKAPKLLIYYATSLADGVPSRFSGSGSGTDYTFTISSLQPEDIATYYCLQHGESPYTFGQGTKLEITRTVAAPSVFIFPPSDEQLKSGTASVVCLLNNFYPREAKVQWKVDNALQSGNSQESVTEQDSKDSTYSLSSTLTLSKADYEKHKVYACEVTHQGLSSPVTKSFNRGEC
modifications: N-linked glycan at Asn297 of the heavy chain (CHO-type, highly fucosylated); not carried by the letters
notes: IgG1/kappa Fc variant; transiently expressed in CHO cells (p4157/p4146); also called I332E (CHO cell-derived); I332E from CHO cells; copies: 2 + 2
In the case of B1, the “fold better binding than WT from CHO cells” value [1] is reported as 6 fold, the “ECOD1 (concentration required for an O.D. value of 1.0)” value (from here on “ECOD1”) [2] is reported as 1600 ng/mL and the “ECOD1” value [3] is reported as 4000 ng/mL. For the same binder, the “ECOD1” value [4] was 13 ng/mL, the “ECOD1” value [5] was 1500 ng/mL and the “fold potency in ADCC against CHO-CNTO 860 WT” value [6] was ~7 fold. The “EC25 (ng/ml), ADCC of HCT116 cells by human PBMC” value (shortened to “EC25 (ng/ml), ADCC”) [7] was 0.75 ng/mL.

B2: YB2/0-CNTO 860 I332E (antibody, human IgG1, kappa)
heavy: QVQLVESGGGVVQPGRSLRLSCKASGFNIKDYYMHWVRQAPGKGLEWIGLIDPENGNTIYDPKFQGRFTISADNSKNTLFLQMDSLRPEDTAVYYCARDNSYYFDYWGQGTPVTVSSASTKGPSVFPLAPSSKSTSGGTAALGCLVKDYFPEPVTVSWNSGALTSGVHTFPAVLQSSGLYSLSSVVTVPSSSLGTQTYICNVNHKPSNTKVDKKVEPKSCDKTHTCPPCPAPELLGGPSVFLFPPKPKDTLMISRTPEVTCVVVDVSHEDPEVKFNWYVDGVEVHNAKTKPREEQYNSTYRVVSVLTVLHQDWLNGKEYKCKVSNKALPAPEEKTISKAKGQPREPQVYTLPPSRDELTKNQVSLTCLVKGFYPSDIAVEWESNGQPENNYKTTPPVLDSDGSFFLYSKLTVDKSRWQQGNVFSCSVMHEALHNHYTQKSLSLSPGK
light: DIQMTQSPSSLSASVGDRVTITCKASQDIRKYLNWYQQKPGKAPKLLIYYATSLADGVPSRFSGSGSGTDYTFTISSLQPEDIATYYCLQHGESPYTFGQGTKLEITRTVAAPSVFIFPPSDEQLKSGTASVVCLLNNFYPREAKVQWKVDNALQSGNSQESVTEQDSKDSTYSLSSTLTLSKADYEKHKVYACEVTHQGLSSPVTKSFNRGEC
modifications: Heavy chain N297 carries the YB2/0-type low-fucose N-linked glycan; not carried by the letters.
notes: IgG1/kappa Fc variant; stably expressed in YB2/0 cells (p4148/p2402), low-fucose glycan; EU numbering; also called I332E (YB2/0 cell-derived); I332E from YB2/0 cells; copies: 2 + 2
In the case of B2, the “fold better binding than WT from CHO” value [1] is reported as ~30 fold, the “fold better binding than WT from YB2/0 cells” value [1] is reported as ~10 fold and the “ECOD1” value [2] is reported as 600 ng/mL. For the same binder, the “ECOD1” value [3] was 5000 ng/mL, the “ECOD1” value [4] was 7 ng/mL and the “ECOD1” value [5] was 700 ng/mL. The “fold change of the concentration for 25% lysis against WT CNTO860 from CHO host cells” value [6] was ~100 fold, the “fold potency in ADCC against YB2/0-CNTO 860 WT” value [6] was ~8 fold and the “EC25 (ng/ml), ADCC” value [7] was 0.3 ng/mL.

B3: YB2/0-CNTO 860 A330I/I332E (antibody, human IgG1, kappa)
heavy: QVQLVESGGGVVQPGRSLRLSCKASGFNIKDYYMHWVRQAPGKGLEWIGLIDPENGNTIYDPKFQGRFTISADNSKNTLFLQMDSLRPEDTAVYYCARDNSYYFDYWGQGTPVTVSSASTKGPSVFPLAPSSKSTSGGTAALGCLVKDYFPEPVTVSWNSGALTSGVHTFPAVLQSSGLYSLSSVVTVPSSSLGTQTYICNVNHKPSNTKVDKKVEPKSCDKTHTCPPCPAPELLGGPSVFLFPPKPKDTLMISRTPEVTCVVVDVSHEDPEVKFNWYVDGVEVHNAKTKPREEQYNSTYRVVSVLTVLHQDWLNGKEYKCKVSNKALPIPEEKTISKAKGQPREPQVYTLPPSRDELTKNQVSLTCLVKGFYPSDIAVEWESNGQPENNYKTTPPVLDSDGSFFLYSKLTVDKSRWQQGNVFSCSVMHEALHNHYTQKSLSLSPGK
light: DIQMTQSPSSLSASVGDRVTITCKASQDIRKYLNWYQQKPGKAPKLLIYYATSLADGVPSRFSGSGSGTDYTFTISSLQPEDIATYYCLQHGESPYTFGQGTKLEITRTVAAPSVFIFPPSDEQLKSGTASVVCLLNNFYPREAKVQWKVDNALQSGNSQESVTEQDSKDSTYSLSSTLTLSKADYEKHKVYACEVTHQGLSSPVTKSFNRGEC
modifications: N-linked glycan at heavy chain Asn297 (YB2/0-type, low fucose); not carried by the letters
notes: IgG1/kappa Fc variant; stably expressed in YB2/0 cells (p4178/p2402); EU numbering; also called A330I/I332E (YB2/0 cell-derived); A330I/I332E from YB2/0 cells; copies: 2 + 2
For B3, the “fold better binding than WT from YB2/0 cells” value [1] was 6 fold, the “ECOD1” value [2] was 3000 ng/mL and the “ECOD1” value [3] was 10000 ng/mL. For the same binder, the “ECOD1” value [4] was 7 ng/mL, the “ECOD1” value [5] was 3000 ng/mL and the “EC25 (ng/ml), ADCC” value [7] was 0.15 ng/mL.

B4: CHO-CNTO 860 I332E/A330I (antibody, human IgG1, kappa)
heavy: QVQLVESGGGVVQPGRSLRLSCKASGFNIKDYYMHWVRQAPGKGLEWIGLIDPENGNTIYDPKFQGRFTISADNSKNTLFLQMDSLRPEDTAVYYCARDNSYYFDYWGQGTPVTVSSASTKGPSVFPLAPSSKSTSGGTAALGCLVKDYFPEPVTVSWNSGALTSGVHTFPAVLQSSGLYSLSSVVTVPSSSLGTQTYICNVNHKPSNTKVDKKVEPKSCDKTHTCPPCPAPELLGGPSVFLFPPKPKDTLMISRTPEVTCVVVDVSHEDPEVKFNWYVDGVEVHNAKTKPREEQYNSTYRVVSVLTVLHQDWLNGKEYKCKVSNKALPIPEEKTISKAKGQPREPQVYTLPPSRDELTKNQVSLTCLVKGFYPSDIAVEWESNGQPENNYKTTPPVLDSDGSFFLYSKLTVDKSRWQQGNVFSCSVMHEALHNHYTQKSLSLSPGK
light: DIQMTQSPSSLSASVGDRVTITCKASQDIRKYLNWYQQKPGKAPKLLIYYATSLADGVPSRFSGSGSGTDYTFTISSLQPEDIATYYCLQHGESPYTFGQGTKLEITRTVAAPSVFIFPPSDEQLKSGTASVVCLLNNFYPREAKVQWKVDNALQSGNSQESVTEQDSKDSTYSLSSTLTLSKADYEKHKVYACEVTHQGLSSPVTKSFNRGEC
modifications: Heavy chain N297 carries the CHO-type N-linked glycan (about 95% fucosylated); not carried by the letters.
notes: IgG1/kappa Fc variant; transiently expressed in CHO cells (p4185/p4146); EU numbering; also called A330I/I332E (CHO cell-derived); A330I/I332E variant from CHO cells; copies: 2 + 2
For B4, the “fold better binding than WT from CHO cells” value [1] was ~8 fold, the “ECOD1” value [2] was 800 ng/mL and the “ECOD1” value [3] was 3000 ng/mL. For the same binder, the “ECOD1” value [4] was 18 ng/mL, the “ECOD1” value [5] was 600 ng/mL and the “EC25 (ng/ml), ADCC” value [7] was 1.2 ng/mL.
